Assay results: patent publication US20250353883A1 (Novartis, published 2025)

biological target: T1, human EGFR on HKB11 cells stably over-expressing hEGFR (human, UniProt P00533 25-1210); experiment: FACS of purified APP-tagged Sso7d on EGFR-overexpressing HKB11 cells versus EGFR knock out cells
T1 construct: whole, on cells; The control lines were HKB11 w.t. cells, which express EGFR endogenously, and HKB11 EGFR knockout cells; also called HKB11_EGFR; HKB11-EGFR transfected

| Binder | binding result |
| --- | --- |
| Sso7d construct 4.1A03 (EGFR, Purif. No. 2) (designed binder, Purified from E. coli on anti-APP columns; It is NGS hit no; 3, at 2.18%; also called Hit NO; not shown: APP tag of the vector) ATVKFTYQGEEKQVDISKIKIVDRYGQYIHFRYDEGGGANGWGWVSEKDAPKELLQMLEKQ | binds |
| Sso7d construct 4.4E10 (EGFR, Purif. No. 7) (designed binder, Purified from E. coli on anti-APP columns; not shown: APP tag of the vector) ATVKFTYQGEEKQVDISKIKIVDRYGQYIHFYYDEGGGADGWGWVSEKDAPKELLQMLEKQ | binds |
| Sso7d construct 4.1H02 (EGFR, Purif. No. 4) (designed binder, Purified from E. coli on anti-APP columns; not shown: APP tag of the vector) ATVKFTYQGEEKQVDISKIKIVDRYGQWIHFRYDEGGGADGWGWVSEKDAPKELLQMLEKQ | binds |
| Sso7d construct 4.1A02 (EGFR, Purif. No. 1) (designed binder, Purified from E. coli BL21(DE3) on anti-APP columns; It was found 1x on the plate and was not in the NGS Top30) ATVKFTYQGEEKQVDISKIKIVDRYGQWIHFNYDEGGGAYGWGWVSEKDAPKELLQMLEKQ | binds |
| Sso7d construct 4.2B11 (EGFR, Purif. No. 6) (designed binder, Purified from E. coli on anti-APP columns; It is NGS hit no; 24, at 0.89%; also called Hit No. 24; not shown: APP tag of the vector) ATVKFTYQGEEKQVDISKIKIVDRYGQNIHFNYDEGGGAWGWGWVSEKDAPKELLQMLEKQ | binds |
| Sso7d construct 4.2A08 (EGFR, Purif. No. 5) (designed binder, Purified from E. coli on anti-APP columns; It is NGS hit 1, at 4.56%; also called Hit 1 NGS; not shown: APP tag of the vector) ATVKFTYQGEEKQVDISKIKIVDRYGQNIHFYYDEGGGANGWGWVSEKDAPKELLQMLEKQ | binds |
